{"source": "paper doi:10.1101/2021.02.16.431378", "molecules": {"B1": {"name": "FITC-labelled histidine-tagged HU-A (protein)", "chain": "MNKTQLIDVIAEKAELSKTQAKAALESTLAAITESLKEGDAVQLVGFGTFKVNHRAERTGRNPQTGKEIKIAAANVPAFVSGKALKDAVK"}, "B2": {"name": "4WJ-DNA (Holliday junction) (structured_DNA)", "DNA 1": "CCCTATAACCCCTGCATTGAATTCCTGTCTGATAA", "DNA 2": "GTAGTCGTGATAGGTGCAGGGGTTATAGGG", "DNA 3": "AACAGTAGCTCTTAATTCGAGCTCGCGCCCTATCACGACTA", "DNA 4": "TTTATCAGACTGGAATTCAAGCGCGAGCTCGAATAAGAGCTACTGT"}}, "key": {"[1]": {"target": "N-terminally 6xHis tagged HU-A (histidine-tagged E. coli HU-A) (E. coli K-12 sub-strain MG1655) (UniProt P0ACF0)", "assay": "cross-linking"}, "[2]": {"target": "N-terminally 6xHis tagged HU-A (histidine-tagged E. coli HU-A) (E. coli K-12 sub-strain MG1655) (UniProt P0ACF0)", "assay": "SEC"}, "[3]": {"target": "N-terminally 6xHis tagged HU-A (histidine-tagged E. coli HU-A) (E. coli K-12 sub-strain MG1655) (UniProt P0ACF0)", "assay": "SEC", "remark": "listed apart in the source"}, "[4]": {"target": "N-terminally 6xHis tagged HU-B (histidine-tagged E. coli HU-B) (E. coli K-12 sub-strain MG1655) (UniProt P0ACF4)", "assay": "cross-linking"}, "[5]": {"target": "N-terminally 6xHis tagged HU-B (histidine-tagged E. coli HU-B) (E. coli K-12 sub-strain MG1655) (UniProt P0ACF4)", "assay": "cross-linking", "remark": "listed apart in the source"}, "[6]": {"target": "N-terminally 6xHis tagged HU-B (histidine-tagged E. coli HU-B) (E. coli K-12 sub-strain MG1655) (UniProt P0ACF4)", "assay": "SEC"}, "[7]": {"target": "N-terminally 6xHis tagged HU-B (histidine-tagged E. coli HU-B) (E. coli K-12 sub-strain MG1655) (UniProt P0ACF4)", "assay": "SEC", "remark": "listed apart in the source"}, "[8]": {"target": "N-terminally 6xHis tagged HU-B (histidine-tagged E. coli HU-B) (E. coli K-12 sub-strain MG1655) (UniProt P0ACF4)", "assay": "cross-linking", "remark": "listed apart in the source"}, "[9]": {"target": "N-terminally 6xHis-tagged HU-B co-expressed from pET-Duet-1 (E. coli K-12 sub-strain MG1655) (UniProt P0ACF4)", "assay": "SEC"}, "[10]": {"target": "N-terminally 6xHis-tagged HU-B co-expressed from pET-Duet-1 (E. coli K-12 sub-strain MG1655) (UniProt P0ACF4)", "assay": "pull-down"}, "[11]": {"target": "T1, TmRITC-labelled histidine-tagged HU-B, P0ACF4", "T1 chain": "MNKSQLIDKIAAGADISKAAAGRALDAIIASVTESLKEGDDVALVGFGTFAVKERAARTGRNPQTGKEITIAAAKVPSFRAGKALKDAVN", "assay": "FRET or BRET"}, "6xHis-HU-A": {"target": "6xHis-HU-A (Escherichia coli K-12 MG1655, UniProt P0ACF0 1-90)", "assay": "EMSA"}, "6xHis-HU-B": {"target": "T2, 6xHis-HU-B (Escherichia coli K-12 MG1655, UniProt P0ACF4 1-90)", "T2 sequence": "T1 chain", "assay": "EMSA"}}, "note": "Values joined by “and” are separate entries in the source; they are usually repeats but may differ in a detail not shown here. Equal values may be shown once."}
{"molecule": "N-terminally 6xHis tagged HU-A (histidine-tagged E. coli HU-A) (from UniProt P0ACF0 1-90) (natural protein)", "values": [{"measurement": "stoichiometry N", "setting": "[1]", "result": 2}, {"measurement": "stoichiometry N", "setting": "[2]", "result": 2}, {"measurement": "stoichiometry N", "setting": "[3]", "result": 2}]}
{"molecule": "N-terminally 6xHis tagged HU-B (histidine-tagged E. coli HU-B) (from UniProt P0ACF4 1-90) (natural protein)", "values": [{"measurement": "stoichiometry N", "setting": "[4]", "result": "2 and 4"}, {"measurement": "stoichiometry N", "setting": "[5]", "result": "2 and 4"}, {"measurement": "stoichiometry N", "setting": "[6]", "result": 2}, {"measurement": "stoichiometry N", "setting": "[7]", "result": 2}, {"measurement": "stoichiometry N", "setting": "[8]", "result": "2 and 4"}]}
{"molecule": "N-terminally 6xHis-tagged HU-B co-expressed from pET-Duet-1 (from UniProt P0ACF4 1-90) (natural protein)", "values": [{"measurement": "stoichiometry N", "setting": "[9]", "result": 2}]}
{"molecule": "Tag-RFP fused to HU-A without a 6xHis tag (RFP-HU-A) (from UniProt P0ACF0 1-90) (natural protein)", "values": [{"measurement": "heterodimer as percent of the total overexpressed HU population", "setting": "[10]", "result": "< 5", "unit": "%"}, {"measurement": "percent of the total protein purified", "setting": "[10]", "result": "< 10", "unit": "%"}, {"measurement": "heterodimer as percent of the total overexpressed HU population", "setting": "[9]", "result": "< 5", "unit": "%"}]}
{"molecule": "B1", "values": [{"measurement": "percent heterodimers formed after mixing", "setting": "[11]", "result": "less than 5%"}]}
{"molecule": "B2", "values": [{"measurement": "binding result", "setting": "6xHis-HU-A", "result": "binds"}, {"measurement": "binding result", "setting": "6xHis-HU-B", "result": "binds"}]}
